Measurements reported in patent US20240209100A1 (DIAGONAL THERAPEUTICS, published 2024).

B1: DGL175 (bispecific antibody)
heavy 1: QLQLVESGGGLVQAGGSLRLSCAASRSITFSHNVMGWYRQAPGKQRELVASIGSGGSTNYVDSVKGRATISRDNAKKTVYLQMNSLKPEDTAVYYCGVVVGVYRGSLGQGTQVTVSSGGGSQVQLQESGGGLVQAGGSLRLSCQASGSIATINGMRWWRQAPGKERELVATINSGGSSNYADSVKGRFTISRDNASHTVSLQMNSLKPEDTAVYYCNLYVYSQFPPFSVDDYWGQGARVTVSSDKTHTCPPCPAPEAAGGPSVFLFPPKPKDTLMISRTPEVTCVVVDVSHEDPEVKFNWYVDGVEVHNAKTKPREEQYNSTYRVVSVLTVLHQDWLNGKEYKCKVSNKALPAPIEKTISKAKGQPREPQVCTLPPSRDELTKNQVSLSCAVKGFYPSDIAVEWESNGQPENNYKTTPPVLDSDGSFFLVSKLTVDKSRWQQGNVFSCSVMHEALHNHYTQKSLSLSPG
heavy 2: not shown
B2: DGL170 (bispecific antibody)
heavy 1: QVQLVESGGGLVQAGGSLRLSCVASGTFFQIHVMGWYRQAPGKQRELVAFIINNGGTRYADSVKGRFTISRDYAKNTVYLQMNSLKPEDTAVYYCNTEGTYRGRYSTDNWGQGTQVTVSSDKGPSVFPLAPEPKSSQVQLVESGGGLVQAGGSLRLSCAASGRTFSKHAMGWFRQAPGKEREFVAAIDWSGGSTYYADSVKGRFTISRDNAKNTVYLQMDSLKPEDTAVYYCAADSYTDYAQLWLPELESEYDYWGQGTQVTVSSDKTHTCPPCPAPEAAGGPSVFLFPPKPKDTLMISRTPEVTCVVVDVSHEDPEVKFNWYVDGVEVHNAKTKPREEQYNSTYRVVSVLTVLHQDWLNGKEYKCKVSNKALPAPIEKTISKAKGQPREPQVCTLPPSRDELTKNQVSLSCAVKGFYPSDIAVEWESNGQPENNYKTTPPVLDSDGSFFLVSKLTVDKSRWQQGNVFSCSVMHEALHNHYTQKSLSLSPG
heavy 2: not shown
B3: DGL171 (bispecific antibody)
heavy 1: EVQLVESGGGLVQAGGSLRLSCAASGSISSRDTMGWYRQAPGKQREMVAVISSSGNTNYADSVLGRFTISRDNAKNTVDLQMNSLKPEDTAIYKCYAHRTYGVDYWGKGTLVTVSSDKGPSVFPLAPEPKSSQVQLVESGGGLVQAGGSLRLSCAASGRTFSSYTMGWFRQAPGKEREFVAAISWSAGRTYYADSVKGRFTISRDNAKNTVYLQMNSLKPEDTAVYFCAAEEAPDWAPIDCSGYGCLSLYDYWGQGTQVTVSSDKTHTCPPCPAPEAAGGPSVFLFPPKPKDTLMISRTPEVTCVVVDVSHEDPEVKFNWYVDGVEVHNAKTKPREEQYNSTYRVVSVLTVLHQDWLNGKEYKCKVSNKALPAPIEKTISKAKGQPREPQVCTLPPSRDELTKNQVSLSCAVKGFYPSDIAVEWESNGQPENNYKTTPPVLDSDGSFFLVSKLTVDKSRWQQGNVFSCSVMHEALHNHYTQKSLSLSPG
heavy 2: not shown
B4: DGL172 (bispecific antibody)
heavy 1: QLQLVESGGGLVQAGGSLRLSCAASRSITFSHNVMGWYRQAPGKQRELVASIGSGGSTNYVDSVKGRATISRDNAKKTVYLQMNSLKPEDTAVYYCGVVVGVYRGSLGQGTQVTVSSDKGPSVFPLAPEPKSSQVQLQESGGGLVQAGGSLRLSCQASGSIATINGMRWWRQAPGKERELVATINSGGSSNYADSVKGRFTISRDNASHTVSLQMNSLKPEDTAVYYCNLYVYSQFPPFSVDDYWGQGARVTVSSDKTHTCPPCPAPEAAGGPSVFLFPPKPKDTLMISRTPEVTCVVVDVSHEDPEVKFNWYVDGVEVHNAKTKPREEQYNSTYRVVSVLTVLHQDWLNGKEYKCKVSNKALPAPIEKTISKAKGQPREPQVCTLPPSRDELTKNQVSLSCAVKGFYPSDIAVEWESNGQPENNYKTTPPVLDSDGSFFLVSKLTVDKSRWQQGNVFSCSVMHEALHNHYTQKSLSLSPG
heavy 2: not shown
B5: DGL169 (bispecific antibody)
heavy 1: QVQLVESGGGLVQAGGSLRLSCAASGRTFSSYTMGWFRQAPGKEREFVAAISWSAGRTYYADSVKGRFTISRDNAKNTVYLQMNSLKPEDTAVYFCAAEEAPDWAPIDCSGYGCLSLYDYWGQGTQVTVSSGGGSQVQLVESGGGLVQAGGSLRLSCAASQTGFNMNRMGWYRQAPGKQRELVATITGGGSTTYADSVKGRFDISRGNVENNLYLQMNSLKPEDTAVYYCNALLFGRDYWGQGTQVTVSSDKTHTCPPCPAPEAAGGPSVFLFPPKPKDTLMISRTPEVTCVVVDVSHEDPEVKFNWYVDGVEVHNAKTKPREEQYNSTYRVVSVLTVLHQDWLNGKEYKCKVSNKALPAPIEKTISKAKGQPREPQVCTLPPSRDELTKNQVSLSCAVKGFYPSDIAVEWESNGQPENNYKTTPPVLDSDGSFFLVSKLTVDKSRWQQGNVFSCSVMHEALHNHYTQKSLSLSPG
heavy 2: not shown
B6: DGL173 (bispecific antibody)
heavy 1: QVQLVESGGGLVQAGGSLRLSCVASGTFFQIHVMGWYRQAPGKQRELVAFIINNGGTRYADSVKGRFTISRDYAKNTVYLQMNSLKPEDTAVYYCNTEGTYRGRYSTDNWGQGTQVTVSSGGGSQVQLVESGGGLVQAGGSLRLSCAASGRTFSKHAMGWFRQAPGKEREFVAAIDWSGGSTYYADSVKGRFTISRDNAKNTVYLQMDSLKPEDTAVYYCAADSYTDYAQLWLPELESEYDYWGQGTQVTVSSDKTHTCPPCPAPEAAGGPSVFLFPPKPKDTLMISRTPEVTCVVVDVSHEDPEVKFNWYVDGVEVHNAKTKPREEQYNSTYRVVSVLTVLHQDWLNGKEYKCKVSNKALPAPIEKTISKAKGQPREPQVCTLPPSRDELTKNQVSLSCAVKGFYPSDIAVEWESNGQPENNYKTTPPVLDSDGSFFLVSKLTVDKSRWQQGNVFSCSVMHEALHNHYTQKSLSLSPG
heavy 2: not shown
B7: DGL174 (bispecific antibody)
heavy 1: EVQLVESGGGLVQAGGSLRLSCAASGSISSRDTMGWYRQAPGKQREMVAVISSSGNTNYADSVLGRFTISRDNAKNTVDLQMNSLKPEDTAIYKCYAHRTYGVDYWGKGTLVTVSSGGGSQVQLVESGGGLVQAGGSLRLSCAASGRTFSSYTMGWFRQAPGKEREFVAAISWSAGRTYYADSVKGRFTISRDNAKNTVYLQMNSLKPEDTAVYFCAAEEAPDWAPIDCSGYGCLSLYDYWGQGTQVTVSSDKTHTCPPCPAPEAAGGPSVFLFPPKPKDTLMISRTPEVTCVVVDVSHEDPEVKFNWYVDGVEVHNAKTKPREEQYNSTYRVVSVLTVLHQDWLNGKEYKCKVSNKALPAPIEKTISKAKGQPREPQVCTLPPSRDELTKNQVSLSCAVKGFYPSDIAVEWESNGQPENNYKTTPPVLDSDGSFFLVSKLTVDKSRWQQGNVFSCSVMHEALHNHYTQKSLSLSPG
heavy 2: not shown

Target: T1, IL-18 receptor (IL-18Rα/IL-18Rβ) overexpressed on HEK-Blue IL-18 cells (Homo sapiens (Human), UniProt Q13478 19-541; O95256 20-599)
T1 sequence 1: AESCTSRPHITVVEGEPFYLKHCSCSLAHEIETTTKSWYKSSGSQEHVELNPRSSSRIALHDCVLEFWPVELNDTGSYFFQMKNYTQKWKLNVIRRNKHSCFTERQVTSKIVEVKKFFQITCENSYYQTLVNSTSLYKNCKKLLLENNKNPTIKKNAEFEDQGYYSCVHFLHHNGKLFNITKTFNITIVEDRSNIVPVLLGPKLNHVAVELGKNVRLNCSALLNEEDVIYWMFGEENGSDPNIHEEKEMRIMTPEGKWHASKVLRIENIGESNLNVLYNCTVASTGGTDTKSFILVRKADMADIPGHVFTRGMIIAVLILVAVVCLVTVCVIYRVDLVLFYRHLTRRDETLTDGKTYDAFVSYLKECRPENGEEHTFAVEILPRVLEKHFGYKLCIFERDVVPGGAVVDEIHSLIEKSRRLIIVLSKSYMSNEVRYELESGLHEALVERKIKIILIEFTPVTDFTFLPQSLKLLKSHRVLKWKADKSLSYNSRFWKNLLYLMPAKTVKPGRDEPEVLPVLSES
T1 sequence 2: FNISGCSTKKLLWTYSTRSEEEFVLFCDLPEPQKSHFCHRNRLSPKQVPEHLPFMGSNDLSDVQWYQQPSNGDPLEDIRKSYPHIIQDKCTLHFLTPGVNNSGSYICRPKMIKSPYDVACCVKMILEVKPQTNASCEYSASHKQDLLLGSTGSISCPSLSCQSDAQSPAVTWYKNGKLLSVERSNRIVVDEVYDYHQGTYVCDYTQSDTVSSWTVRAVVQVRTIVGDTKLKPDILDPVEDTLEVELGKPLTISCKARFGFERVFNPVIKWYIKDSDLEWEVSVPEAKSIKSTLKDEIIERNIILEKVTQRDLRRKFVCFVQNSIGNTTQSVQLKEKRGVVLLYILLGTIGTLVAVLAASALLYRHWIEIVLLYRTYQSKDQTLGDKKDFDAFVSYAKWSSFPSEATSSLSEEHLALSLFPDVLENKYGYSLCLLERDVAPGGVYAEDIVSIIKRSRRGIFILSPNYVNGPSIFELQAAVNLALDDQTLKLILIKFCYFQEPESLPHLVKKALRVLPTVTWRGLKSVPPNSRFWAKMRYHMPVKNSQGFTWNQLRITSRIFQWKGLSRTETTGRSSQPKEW
Assay: cell-based or functional assay

| HEK-Blue IL-18: Abs 405 | HEK-Blue IL-18: Fold over Background | Binder |
| --- | --- | --- |
| 1.1 Abs | 9.1 fold | B1 |
| 0.23 Abs | 1.9 fold | B2 |
| 0.53 Abs | 4.3 fold | B3 |
| 1.02 Abs | 8.5 fold | B4 |
| 0.22 Abs | 1.8 fold | B5 |
| 0.59 Abs | 4.9 fold | B6 |
| 1.14 Abs | 9.5 fold | B7 |
